Results: patent publication US12269859B2, “Synthetic immune receptors and methods of use thereof” (Angeles Therapeutics, Inc., priority 2016, dated 2025)

B1: 010417-E08 (protein)
chain: MALPVTALLLPLALLLHAARPLEGKPIPNPLLGLDSTGSGEDLKNVFPPEVAVFEPSKAEIAHTQKATLVCLATGFYPDHVELSWWVNGKEVHSGVCTDPQPLKEQPALNDSRYCLSSRLRVSATFWQNPRNHFRCQVQFYGLSENDEWTQDRAKPVTQIVSAEAWGRADCGITSASYHQGVLSATILYEILLGKATLYAVLVSALVLMAMVKRKDSRGRAKRSGSGATNFSLLKQAGDVEENPGPTSTMALPVTALLLPLALLLHAARPDEIVLTQSPATLSLSPGERATLSCSASSSVSYMHWYQQKPGQAPRLLIYDTSKLASGIPARFSGSGSGTDFTLTISSLEPEDVAVYYCFQGSVYPFTFGQGTKLEIKRGGGGSGGGGSGGGGSQVQLQESGPGLVKPSQTLSLTCTVSGGSISTSGMGVGWIRQHPGKGLEWIGHIWWDDDKRYNPALKSRVTISVDTSKNQFSLKLSSVTAADTAVYYCARMELWSYYFDYWGQGTLVTVSSTREAAAKQIVLTQSPAIMSASPGEKVTISCSASSSVSYMYWYQQKPGSSPKPWIYRTSNLASGVPARFSGSGSGTSYSLTISNMEAEDAAAYYCQQYHSYPTTFGGGTKLEVKGGGGSGGGGSGGGGSEVQLVESGGGLVQPKGSLKLSCAASGFSFNTYAMNWVRQAPGKGLEWIAHIRSKSNNFATYYADSVKDRFSISRDASENILFLQMNNLKTEDTAMYYCVRQGGDFPMDYWGQGTSVTVSSTREQKLISEEDGSGIQNPDPAVYQLRDSKSSDKSVCLFTDFDSQTNVSQSKDSDVYITDKCVLDMRSMDFKSNSAVAWSNKSDFACANAFNNSIIPEDTFFPSSDVPCDVKLVEKSFETDTNLNFQNLSVIGFRILLLKVAGFNLLMTLRLWSSRAKRSGSGVKQTLNFDLLKLAGDVESNPGPSRGHMTEYKPTVRLATRDDVPRAVRTLAAAFADYPATRHTVDPDRHIERVTELQELFLTRVGLDIGKVWVADDGAAVAVWTTPESVEAGAVFAEIGPRMAELSGSRLAAQQQMEGLLAPHRPKEPAWFLATVGVSPDHQGKGLGSAVVLPGVEAAERAGVPAFLETSAPRNLPFYERLGFTVTADVEVPEGPRTWCMTRKPGA
B2: 040716-G02 (protein)
chain: MALPVTALLLPLALLLHAARPDEIVLTQSPATLSLSPGERATLSCSASSSVSYMHWYQQKPGQAPRLLIYDTSKLASGIPARFSGSGSGTDFTLTISSLEPEDVAVYYCFQGSVYPFTFGQGTKLEIKRGGGGSGGGGSGGGGSQVQLQESGPGLVKPSQTLSLTCTVSGGSISTSGMGVGWIRQHPGKGLEWIGHIWWDDDKRYNPALKSRVTISVDTSKNQFSLKLSSVTAADTAVYYCARMELWSYYFDYWGQGTLVTVSSLEGKPIPNPLLGLDSTGSGEDLKNVFPPEVAVFEPSKAEIAHTQKATLVCLATGFYPDHVELSWWVNGKEVHSGVCTDPQPLKEQPALNDSRYCLSSRLRVSATFWQNPRNHFRCQVQFYGLSENDEWTQDRAKPVTQIVSAEAWGRADCGITSASYHQGVLSATILYEILLGKATLYAVLVSALVLMAMVKRKDSRGRAKRSGSGATNFSLLKQAGDVEENPGPTSTMALPVTALLLPLALLLHAARPDTIVLTQSPASLAVSLGQRATISCRASESVDSYGNSFMHWYQQKPGQPPKLLIYLASNLESGVPARFSGSGSRTDFTLTIDPVEADDAATYYCQQNNYDPWTFGGGTKLEIKGGGGSGGGGSGGGGSEVQLQQSGPELVKPGASVKMSCKASGYTFTSYVMHWVKQKPGQGLEWIGYINPYNDGTKYNEKFKGKATLTSDTSSSTAYMELNSLTSEDSAVYFCARPIYFDNDYFDYWGQGTTLKVSSTREQKLISEEDGSGIQNPDPAVYQLRDSKSSDKSVCLFTDFDSQTNVSQSKDSDVYITDKCVLDMRSMDFKSNSAVAWSNKSDFACANAFNNSIIPEDTFFPSSDVPCDVKLVEKSFETDTNLNFQNLSVIGFRILLLKVAGFNLLMTLRLWSSRAKRSGSGVKQTLNFDLLKLAGDVESNPGPSRGHMTEYKPTVRLATRDDVPRAVRTLAAAFADYPATRHTVDPDRHIERVTELQELFLTRVGLDIGKVWVADDGAAVAVWTTPESVEAGAVFAEIGPRMAELSGSRLAAQQQMEGLLAPHRPKEPAWFLATVGVSPDHQGKGLGSAVVLPGVEAAERAGVPAFLETSAPRNLPFYERLGFTVTADVEVPEGPRTWCMTRKPGA
modifications: Synthetic polynucleotide encoding a SIR
B3: 063016-E01 (protein)
chain: MALPVTALLLPLALLLHAARPDEIVLTQSPATLSLSPGERATLSCSASSSVSYMHWYQQKPGQAPRLLIYDTSKLASGIPARFSGSGSGTDFTLTISSLEPEDVAVYYCFQGSVYPFTFGQGTKLEIKRGGGGSGGGGSGGGGSQVQLQESGPGLVKPSQTLSLTCTVSGGSISTSGMGVGWIRQHPGKGLEWIGHIWWDDDKRYNPALKSRVTISVDTSKNQFSLKLSSVTAADTAVYYCARMELWSYYFDYWGQGTLVTVSSLEGKPIPNPLLGLDSTGSGEDLKNVFPPEVAVFEPSEAEISHTQKATLVCLATGFYPDHVELSWWVNGKEVHSGVCTDPQPLKEQPALNDSRYCLSSRLRVSATFWQNPRNHFRCQVQFYGLSENDEWTQDRAKPVTQIVSAEAWGRADCGFTSESYQQGVLSATILYEILLGKATLYAVLVSALVLMAMVKRKDSRGRAKRSGSGATNFSLLKQAGDVEENPGPTSATMALPVTALLLPLALLLHAARPDVQLQESGPGLVKPSQSLSLTCTVTGYSITSDYTWNWIRQFPGNKLEWMGYITYSGSTSYNPSLKSRNSITRDTSKNQFFLQLNSVTTEDTATYYCARLGRRYTMDYWGQGTSVTVSSGGGGSGGGGSGGGGSDIQMTQSSSSFSVSLGDRVTITCMASEDIYIRLAWYQQKPGNAPRLLISAATSLETGVPSRFSGSGSGKDYTLSITSLQTEDVGTYYCQQYWSSPWTFGGGTKLEINTREQKLISEEDGSGIQNPDPAVYQLRDSKSSDKSVCLFTDFDSQTNVSQSKDSDVYITDKCVLDMRSMDFKSNSAVAWSNKSDFACANAFNNSIIPEDTFFPSPESSCDVKLVEKSFETDTNLNFQNLSVIGFRILLLKVAGFNLLMTLRLWSSRAKRSGSGVKQTLNFDLLKLAGDVESNPGPSRGHMTEYKPTVRLATRDDVPRAVRTLAAAFADYPATRHTVDPDRHIERVTELQELFLTRVGLDIGKVWVADDGAAVAVWTTPESVEAGAVFAEIGPRMAELSGSRLAAQQQMEGLLAPHRPKEPAWFLATVGVSPDHQGKGLGSAVVLPGVEAAERAGVPAFLETSAPRNLPFYERLGFTVTADVEVPEGPRTWCMTRKPGA
modifications: Synthetic Immune Receptor (SIR)
B4: 010417-C03 (protein)
chain: MALPVTALLLPLALLLHAARPLEGKPIPNPLLGLDSTGSGEDLKNVFPPEVAVFEPSKAEIAHTQKATLVCLATGFYPDHVELSWWVNGKEVHSGVCTDPQPLKEQPALNDSRYCLSSRLRVSATFWQNPRNHFRCQVQFYGLSENDEWTQDRAKPVTQIVSAEAWGRADCGITSASYHQGVLSATILYEILLGKATLYAVLVSALVLMAMVKRKDSRGRAKRSGSGATNFSLLKQAGDVEENPGPTSTMALPVTALLLPLALLLHAARPDEIVLTQSPATLSLSPGERATLSCSASSSVSYMHWYQQKPGQAPRLLIYDTSKLASGIPARFSGSGSGTDFTLTISSLEPEDVAVYYCFQGSVYPFTFGQGTKLEIKRGGGGSGGGGSGGGGSQVQLQESGPGLVKPSQTLSLTCTVSGGSISTSGMGVGWIRQHPGKGLEWIGHIWWDDDKRYNPALKSRVTISVDTSKNQFSLKLSSVTAADTAVYYCARMELWSYYFDYWGQGTLVTVSSTREAAAKDIQMTQSPSSLSASVGDRVTITCKASQDVGIAVAWYQQKPGKVPKLLIYWASTRHTGVPDRFSGSGSGTDFTLTISSLQPEDVATYYCQQYSSYPYTFGQGTKVEIKGGGGSGGGGSGGGGSEVQLVESGGGLVQPGGSLRLSCAASGFDFSRYWMSWVRQAPGKGLEWIGEINPDSSTINYAPSLKDKFIISRDNAKNSLYLQMNSLRAEDTAVYYCARPDGNYWYFDVWGQGTLVTVSSTREQKLISEEDGSGIQNPDPAVYQLRDSKSSDKSVCLFTDFDSQTNVSQSKDSDVYITDKCVLDMRSMDFKSNSAVAWSNKSDFACANAFNNSIIPEDTFFPSSDVPCDVKLVEKSFETDTNLNFQNLSVIGFRILLLKVAGFNLLMTLRLWSSRAKRSGSGVKQTLNFDLLKLAGDVESNPGPSRGHMTEYKPTVRLATRDDVPRAVRTLAAAFADYPATRHTVDPDRHIERVTELQELFLTRVGLDIGKVWVADDGAAVAVWTTPESVEAGAVFAEIGPRMAELSGSRLAAQQQMEGLLAPHRPKEPAWFLATVGVSPDHQGKGLGSAVVLPGVEAAERAGVPAFLETSAPRNLPFYERLGFTVTADVEVPEGPRTWCMTRKPGA

Tested on: target antigen-expressing cell line
Test: Jurkat NFAT-GFP assay, coculture with target cell lines expressing the respective target antigen (summary Table 10A)
Format: cell-based, human
Parameters: key: The signs +/−, +, 2+ etc. after the name of the cell lines indicate the relative degree of positivity on the Jurkat-NFAT-GFP assay as measured by the % GFP positive cells; +: relative degree of positivity on the Jurkat-NFAT-GFP assay as measured by the % GFP positive cells; 2+: relative degree of positivity on the Jurkat-NFAT-GFP assay as measured by the % GFP positive cells
Conditions: relative % GFP positive cells; for NFAT-GFP ASSAY Positive Cell lines: HEL: SIR-expressing Jurkat-NFAT-GFP cells cocultured with HEL; for NFAT-GFP ASSAY Positive Cell lines: NALM6: SIR-expressing Jurkat-NFAT-GFP cells cocultured with NALM6; for NFAT-GFP ASSAY Positive Cell lines: RAJI: SIR-expressing Jurkat-NFAT-GFP cells cocultured with RAJI
Procedure, shortened: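 Stable SIR expression in Jurkat-NFAT-GFP cells by lentiviral transfer and puromycin selection; coculture with target cells (E:T approximately 1:2) for 4 to 18 hours; flow cytometric measurement of NFAT-driven GFP; scoring as positive when % GFP-positive cells exceeds that of parental reporter cells.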

| Molecule | NFAT-GFP ASSAY Positive Cell lines: HEL | NFAT-GFP ASSAY Positive Cell lines: NALM6 | NFAT-GFP ASSAY Positive Cell lines: RAJI |
| --- | --- | --- | --- |
| B1 | (+), HEL (+) | (+), HEL (+) | RAJI (+), NALM6 |
| B2 | – | – | RAJI (+/−) |
| B3 | +/− | – | 2+ |
| B4 | – | (+/−) | RAJI (+), NALM6 |
